This passage reports Emax for STAT1 (phospho-Y701-STAT1) in HT-29 cells, phospho-flow (% of the WT IL-22 Emax) and Emax for STAT3 (phospho-Y705-STAT3) in HT-29 cells, phospho-flow (% of the WT IL-22 Emax) results from patent publication US20230192794A1.

The assay deals with IL10Rβ on human cell lines (HT-29, HEK-293T) (human (cells stated as human)) (UniProt Q08334). Nature of the assay: cell-based or functional assay.
IL10Rβ on human cell lines (HT-29, HEK-293T) (human (cells stated as human)), sequence (Q08334 20-325): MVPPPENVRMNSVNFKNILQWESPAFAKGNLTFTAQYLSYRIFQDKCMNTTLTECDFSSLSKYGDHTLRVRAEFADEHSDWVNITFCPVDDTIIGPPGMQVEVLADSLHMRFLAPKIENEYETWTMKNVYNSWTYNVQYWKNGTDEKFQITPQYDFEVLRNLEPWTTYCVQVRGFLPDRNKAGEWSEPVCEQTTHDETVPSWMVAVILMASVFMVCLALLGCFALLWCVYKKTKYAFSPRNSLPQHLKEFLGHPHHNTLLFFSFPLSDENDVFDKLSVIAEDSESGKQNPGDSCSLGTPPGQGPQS

As for “22-B3 (mouse IL-22 S45E/Q116A/K124A/Q128A) (from UniProt Q9JJY9 34-179) (ligand)”, the Emax for STAT1 (phospho-Y701-STAT1) in HT-29 cells, phospho-flow (% of the WT IL-22 Emax) stood at 30 and the Emax for STAT3 (phospho-Y705-STAT3) in HT-29 cells, phospho-flow (% of the WT IL-22 Emax) came to 100.
